Test results reported in paper PMC10838266 (Nature Communications, 2024).
Values belong to the molecule of their own block, whether it stands above or below them.

B2: Phosphoglycerate kinase 1, wild-type, His-tagged recombinant (enzyme, UniProt P00558 1-417, looked up)
chain: MSLSNKLTLDKLDVKGKRVVMRVDFNVPMKNNQITNNQRIKAAVPSIKFCLDNGAKSVVLMSHLGRPDGVPMPDKYSLEPVAVELKSLLGKDVLFLKDCVGPEVEKACANPAAGSVILLENLRFHVEEEGKGKDASGNKVKAEPAKIEAFRASLSKLGDVYVNDAFGTAHRAHSSMVGVNLPQKAGGFLMKKELNYFAKALESPERPFLAILGGAKVADKIQLINNMLDKVNEMIIGGGMAFTFLKVLNNMEIGTSLFDEEGAKIVKDLMSKAEKNGVKITLPVDFVTADKFDENAKTGQATVASGIPAGWMGLDCGPESSKKYAEAVTRAKQIVWNGPVGVFEWEAFARGTKALMDEVVKATSRGCITIIGGGDTATCCAKWNTEDKVSHVSTGGGASLELLEGKVLPGVDALSNI
notes: Phosphoglycerate kinase 1 (PGK1), wild-type, cloned into the BamHI and XhoI sites of pET32a; also called PGK1; His-tagged PGK1

What was measured:
Hrs = Hrs (UniProt O14964); experiment: co-immunoprecipitation from cell lysate; details: reference: wild type; sites S203
[1] = molecular target: B2; experiment: pull-down; competition with purified components: increasing level of an EGFR peptide (dileucine signal or mutated) added to the pull-down of PGK1 by GST-EGFR; details: both partners purified
[2] = molecular target: T1, GST fused to the cytoplasmic domain of the epidermal growth factor receptor (UniProt P00533 669-1210); experiment: pull-down; GST-fusion proteins on glutathione beads incubated with soluble proteins (100 nM), 4 °C, 1 h, PBS with 0.05% Triton X-100 and protease inhibitors; two washes; SDS-PAGE with Coomassie staining or western blot; details: both partners purified
T1 construct: Epidermal growth factor receptor (EGFR), cytoplasmic domain appended to the carboxy terminus of GST in pGEX-4T-1; also called GST-EGFR cytoplasmic domain; source: E. coli BL21, purified on glutathione-Sepharose 4B beads; not shown: GST, N-terminal, kept

binding against the reference (Hrs): weaker
Molecule: PGK1 (from UniProt P00558) S203A

binding result [1]: binds
B1: EGFR peptide, wild-type (contains the dileucine sorting signal) (peptide)
peptide: PNQALLRILKETE
notes: Stretch of the juxta-membrane region of the epidermal growth factor receptor (EGFR) with the dileucine sorting signal; also called peptide that contains the relevant dileucine motif; source: synthetic peptide (core facility)

Molecule: B2
binding result [2]: binds
